Reference: publication PMC10381965 (2022)

Target: CENP-ΔQU complex (CENP-Q^1–294 and CENP-U^30–266) (S. cerevisiae, UniProt P53298 1-294; P38313 30-266)
Test: ITC

Row | Binder | Kd
1 | Ac-AGDQQSINDRALSLLQRTRATKNW-NH2 [CENP-A^END-2 peptide] | 0.66 µM
2 | Ac-AGDQQSINDAALSLLQRTRATKNW-NH2 [CENP-A^END-2-R37A peptide] | 9.67 µM
